The source of these data is patent US20230050972A1 (MOMENTA PHARMACEUTICALS, published 2023).

The target of test [1] is T1, α11β1 on human myofibroblasts (MF) (human, UniProt Q9UKX5 23-1188; P05556 21-798).
T1 construct: whole, on cells
The test can be described thus: FACS on human myofibroblasts. As for the experimental part: Human Pulmonary Fibroblasts (ScienCell) were cultured in complete Fibroblast Growth Medium (ScienCell) until 80% confluent in T-150 flasks. Cells were washed and harvested using Accutase. Cells were seeded into T-150 flasks at 7,500 cells/cm² in complete FGF and cultured for 72 hours. Cells were then washed and starved in serum reduced medium for 24 hours. After starvation, cells were treated with TGFβ-1 (R&D Systems) for 72 hours. Cells were harvested using Accutase and seeded in 96-well conical bottom plates. Cells were blocked with Heat Inactived Fetal Bovine Serum (Gibco) for 30 minutes at 4° C. Cells were then incubated with anti-α11 antibodies at the doses described in each figure for 30 minutes at 4° C. A human anti-α11 antibody (Creative BioLabs) was included as a positive control as well as the appropriate IgG isotype negative controls. Cells were washed twice and incubated with PE conjugated secondary antibodies specific to the IgG class of the anti-α11 antibodies being tested for 30 minutes at 4° C. Cells were washed twice and fixed in 1% PFA for 30 minutes. Cells were acquired on a FACS Verse […]. Data were analyzed by gating on single cells and determining the geometric Mean Fluorescence Intensity (gMFI) in the PE channel for each sample.

Test [2] concerns the target T2, in-house generated I domain of α11β1 (human, UniProt Q9UKX5 159-349, limits assumed).
T2 construct: domain: I domain; also called human α11β1 I domain; α11β1 I Domain
T2 sequence (looked up): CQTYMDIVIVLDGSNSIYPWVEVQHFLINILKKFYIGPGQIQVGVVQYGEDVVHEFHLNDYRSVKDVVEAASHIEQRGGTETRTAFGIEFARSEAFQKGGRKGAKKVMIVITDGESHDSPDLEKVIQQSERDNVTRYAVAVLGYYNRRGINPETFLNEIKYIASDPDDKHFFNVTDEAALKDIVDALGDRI
The test can be described thus: binding to isolated I domain.

For another test, the target named is T3, recombinant human α11β1 (human, UniProt Q9UKX5 23-1141; P05556 21-728).
T3 construct: Coated in ELISA; ELISA and SPR material treated as one molecule; also called HIS-tagged human α11β1; integrin alpha 11 beta 1
T3 sequence (Q9UKX5 23-1141 limits assumed, chain 1 of 2): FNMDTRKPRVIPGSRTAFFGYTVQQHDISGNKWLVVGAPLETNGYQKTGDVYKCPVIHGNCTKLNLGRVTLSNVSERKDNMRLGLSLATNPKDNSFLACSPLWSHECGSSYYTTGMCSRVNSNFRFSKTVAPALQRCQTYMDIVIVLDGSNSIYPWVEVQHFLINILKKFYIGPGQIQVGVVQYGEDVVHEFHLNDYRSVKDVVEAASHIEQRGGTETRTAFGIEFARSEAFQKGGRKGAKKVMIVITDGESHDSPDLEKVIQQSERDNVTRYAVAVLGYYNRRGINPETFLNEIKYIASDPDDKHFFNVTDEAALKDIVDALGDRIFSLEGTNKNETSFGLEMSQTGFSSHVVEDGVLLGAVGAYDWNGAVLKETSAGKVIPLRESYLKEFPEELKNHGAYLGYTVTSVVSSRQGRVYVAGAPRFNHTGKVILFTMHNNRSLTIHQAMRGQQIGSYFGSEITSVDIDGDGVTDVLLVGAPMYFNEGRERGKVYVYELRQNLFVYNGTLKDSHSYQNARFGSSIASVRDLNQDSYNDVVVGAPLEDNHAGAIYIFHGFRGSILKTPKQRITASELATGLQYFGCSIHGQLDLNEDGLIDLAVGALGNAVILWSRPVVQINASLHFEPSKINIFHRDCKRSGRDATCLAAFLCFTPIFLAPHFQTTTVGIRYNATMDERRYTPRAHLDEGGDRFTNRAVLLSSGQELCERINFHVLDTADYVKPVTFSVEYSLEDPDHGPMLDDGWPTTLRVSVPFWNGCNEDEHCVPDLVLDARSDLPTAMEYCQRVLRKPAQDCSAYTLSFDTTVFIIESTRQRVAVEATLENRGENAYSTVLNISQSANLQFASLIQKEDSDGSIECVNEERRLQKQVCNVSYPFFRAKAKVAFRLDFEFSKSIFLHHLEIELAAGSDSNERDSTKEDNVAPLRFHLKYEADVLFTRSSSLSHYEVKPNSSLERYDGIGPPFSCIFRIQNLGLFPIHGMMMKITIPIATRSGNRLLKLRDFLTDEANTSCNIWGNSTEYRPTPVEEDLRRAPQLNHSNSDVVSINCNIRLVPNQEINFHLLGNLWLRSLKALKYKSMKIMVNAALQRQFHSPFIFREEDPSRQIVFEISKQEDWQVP
T3 sequence (P05556 21-728 limits assumed, chain 2 of 2): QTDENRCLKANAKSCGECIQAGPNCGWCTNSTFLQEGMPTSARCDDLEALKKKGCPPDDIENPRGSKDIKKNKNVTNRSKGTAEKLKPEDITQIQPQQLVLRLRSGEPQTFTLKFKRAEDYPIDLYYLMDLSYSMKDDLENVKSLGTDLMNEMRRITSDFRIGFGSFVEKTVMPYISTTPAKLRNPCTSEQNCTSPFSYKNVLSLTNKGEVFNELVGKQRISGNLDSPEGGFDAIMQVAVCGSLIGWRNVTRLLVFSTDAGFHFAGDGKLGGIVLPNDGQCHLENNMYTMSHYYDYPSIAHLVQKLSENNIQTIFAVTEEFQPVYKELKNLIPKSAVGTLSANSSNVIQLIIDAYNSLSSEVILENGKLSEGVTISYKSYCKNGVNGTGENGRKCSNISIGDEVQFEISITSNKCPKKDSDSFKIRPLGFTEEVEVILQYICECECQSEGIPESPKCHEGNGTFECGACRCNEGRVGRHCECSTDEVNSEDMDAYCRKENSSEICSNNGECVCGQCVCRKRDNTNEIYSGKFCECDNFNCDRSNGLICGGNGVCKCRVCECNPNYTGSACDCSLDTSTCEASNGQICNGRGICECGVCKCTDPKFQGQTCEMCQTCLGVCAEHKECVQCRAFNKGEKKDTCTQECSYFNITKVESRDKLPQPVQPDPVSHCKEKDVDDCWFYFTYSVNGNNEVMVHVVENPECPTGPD
Kind of test: ELISA on recombinant human α11β1. The protocol:
(§1) 0.25 μg/mL of target antigen (recombinant human or mouse α11β1) was plated in a 96-well plate over night at 4° C. Plates were washed (PBS with 0.1% Tween-20), blocked (PBS with 2% BSA and 0.05% Tween-20) for 1 hour at room temperature and incubated with a range of antibody concentrations for 1 hour at room temperature. Subsequently, plates were washed and incubated with biotinylated anti-rabbit/mouse/human IgG in a 1:1000 dilution buffer and incubated for 1 hour at room temperature. After washing the plates, Streptavidin HRP was added at 1:200 in dilution buffer and incubated for 1 hour at room temperature. Ultra TMB ELISA substrate solution was added and the plates incubated for 5 minutes on a plate shaker. The reaction was stopped by adding stop solution to each well and plates were read at 450 nm.
(In general: An ELISA detects its analyte on a solid surface through an enzyme-linked reagent.)

A further test concerns the target T4, recombinant mouse α11β1 (mouse, UniProt P61622 23-1141; P09055 21-728, limits assumed).
T4 construct: also called murine α11β1
The test can be described thus: ELISA on recombinant mouse α11β1. The protocol:
as §1

T1 sequence (Q9UKX5 23-1188, chain 1 of 2): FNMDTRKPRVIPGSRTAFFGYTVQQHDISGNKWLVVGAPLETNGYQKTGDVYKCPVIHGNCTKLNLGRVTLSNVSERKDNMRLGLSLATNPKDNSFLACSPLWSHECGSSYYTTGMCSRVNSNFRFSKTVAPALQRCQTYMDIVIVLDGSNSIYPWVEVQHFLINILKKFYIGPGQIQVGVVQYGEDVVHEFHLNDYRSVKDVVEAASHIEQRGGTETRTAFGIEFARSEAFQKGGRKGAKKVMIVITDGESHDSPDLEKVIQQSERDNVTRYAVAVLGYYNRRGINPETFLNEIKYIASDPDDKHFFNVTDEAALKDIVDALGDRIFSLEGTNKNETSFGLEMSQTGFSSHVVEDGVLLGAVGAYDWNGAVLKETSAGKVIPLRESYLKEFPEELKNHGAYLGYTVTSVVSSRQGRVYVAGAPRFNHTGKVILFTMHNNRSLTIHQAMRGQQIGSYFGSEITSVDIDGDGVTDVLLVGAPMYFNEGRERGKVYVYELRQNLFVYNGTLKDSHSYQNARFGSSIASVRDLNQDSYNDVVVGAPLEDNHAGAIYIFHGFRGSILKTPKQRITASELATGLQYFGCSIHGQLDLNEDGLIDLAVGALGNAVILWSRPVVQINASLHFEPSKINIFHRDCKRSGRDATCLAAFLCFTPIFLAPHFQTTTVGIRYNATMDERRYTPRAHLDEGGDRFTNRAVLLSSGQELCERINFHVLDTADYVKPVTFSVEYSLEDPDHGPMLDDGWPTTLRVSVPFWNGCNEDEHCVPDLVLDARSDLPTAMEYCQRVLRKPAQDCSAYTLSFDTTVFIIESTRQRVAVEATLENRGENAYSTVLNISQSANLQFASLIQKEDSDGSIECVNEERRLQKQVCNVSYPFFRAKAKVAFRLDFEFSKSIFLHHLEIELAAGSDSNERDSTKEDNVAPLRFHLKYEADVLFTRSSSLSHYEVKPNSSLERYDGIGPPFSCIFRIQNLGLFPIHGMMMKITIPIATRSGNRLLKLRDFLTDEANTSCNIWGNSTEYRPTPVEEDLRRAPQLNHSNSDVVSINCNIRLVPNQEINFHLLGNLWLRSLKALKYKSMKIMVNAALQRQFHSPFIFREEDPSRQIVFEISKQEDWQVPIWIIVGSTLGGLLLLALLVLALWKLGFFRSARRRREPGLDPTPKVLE
T1 sequence (P05556 21-798, chain 2 of 2): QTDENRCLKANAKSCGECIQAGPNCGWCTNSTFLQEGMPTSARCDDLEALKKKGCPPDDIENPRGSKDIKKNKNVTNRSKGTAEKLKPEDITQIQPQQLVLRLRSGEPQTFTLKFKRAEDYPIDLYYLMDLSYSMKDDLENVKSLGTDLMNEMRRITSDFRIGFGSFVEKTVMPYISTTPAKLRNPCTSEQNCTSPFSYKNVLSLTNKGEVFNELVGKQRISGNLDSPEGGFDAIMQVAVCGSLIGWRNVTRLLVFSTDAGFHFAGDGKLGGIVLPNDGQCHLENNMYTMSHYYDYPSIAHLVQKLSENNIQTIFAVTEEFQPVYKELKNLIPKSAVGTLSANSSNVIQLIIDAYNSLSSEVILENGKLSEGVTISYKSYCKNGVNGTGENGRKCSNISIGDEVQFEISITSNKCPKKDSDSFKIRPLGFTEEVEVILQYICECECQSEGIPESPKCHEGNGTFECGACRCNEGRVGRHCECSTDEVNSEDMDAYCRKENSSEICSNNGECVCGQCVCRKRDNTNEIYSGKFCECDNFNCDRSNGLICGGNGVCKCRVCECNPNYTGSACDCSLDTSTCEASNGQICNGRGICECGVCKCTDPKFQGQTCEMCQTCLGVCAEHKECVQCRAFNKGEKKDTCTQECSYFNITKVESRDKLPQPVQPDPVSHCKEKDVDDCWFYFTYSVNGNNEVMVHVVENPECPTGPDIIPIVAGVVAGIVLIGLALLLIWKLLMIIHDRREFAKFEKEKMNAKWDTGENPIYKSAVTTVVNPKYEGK

B1: A11B1_6F9 (antibody, V domains shown)
VH: QSLEESGGDLVKPGASLTLTCTASGSSFSSTYWNCWVRQAPGKGLEWIACINAGSGTTYYASWAKGRFTVSKTSSTTVTLQMTSLTAADTATYFCTRDSDGRFSSGYYFNLWGPGTLVTVSS
VL: AQVLTQTASPVSAAVGGTVTINCQSSQSVYDNNWLAWYQQKPGQPPKLLIDDASKLTSGVSSRFKGSGSGTQFTLTISGVQCDDAATYYCQGAYYSSGWYWAFGGGTEVVVKG
notes: recombinant rabbit IgG, full chains
As to B1, the binding result is “binds” in test [1], “no binding” in test [2], “binds” in the test with recombinant human α11β1 and “no binding” with recombinant mouse α11β1.

B2: A11B1_5D7 (antibody, V domains shown)
VH: QEQLVESGGGLVQPEGSLTLTCKASGFDFSSNAMCWVRQAPGKGLEWIACIYNGDGSTYYASWVNGRFTISKTSSTTVTLQMTSLTAADTATYFCARGLSNWNRDNLWGPGTLVTVSS
VL: AQVLTQTPSSVSAAVGGTATINCQASQSLYSPKNLAWYQQTPGQPPKLLIYSASKLASGVPSRFKGSGSGTQFTLTISGVQCDDAAIYYCQGEFSCTTAACFAFGGGTEVVVKG
notes: as for B1
B2: the binding result is “binds” in test [1], “no binding” in test [2], “binds” with recombinant human α11β1 and “no binding” with recombinant mouse α11β1.

B3: A11B1_6G4 (antibody, V domains shown)
VH: QQQLEESGGGLVKPGGTLTLTCKASGVALNPYYYMCWVRQAPGKGLEWIACVDADSSGSTYYASWAKGRFTISKTSSTTVTLKMTSLTAADTATYFCARESVDYSSVGIGYVHGTDGLWGPGTLVTVSS
VL: DIVVTQTPSSVSAAVGGTVTIKCQASQSISNYFSWYQQKPGQPPKLLIYRASTLASGVPSRFKGSGSGTEFTLTISDLECADAATYYCQCTYGRSNSNFFYGFGGGTEVVVKG
notes: as for B1
In the case of B3, the binding result in test [1] is given as “binds”; in test [2], “no binding”; in the test with recombinant human α11β1, “binds”; with recombinant mouse α11β1 it was “no binding”.

B4: 7D8B10 (antibody, V domains shown)
VH: EVKLEESGGGLVQPGMSVKLSCATSGFIFSDYWMEWVRQAPGKGLEWVAEIRNKANNYATYYGKSMKGRFTISRDDSKSIVYLQVNSIRSEDTAIYYCAPNFDYWGQGVMVTVSS
VL: DVVLTQTPPTLSATIGQSVSISCRSSQSLLHSTGNTYLNWLLQRPGQPPQLLIYLVSRLESGVPNRFSASGSGTDFTLKISGIEAEDLGVYYCVQSSHTPYTFGTGTKLELK
notes: rat hybridoma mAb
For the molecule B4, the binding result was “binds” in test [1], “no binding” in test [2], “binds” with recombinant human α11β1 and “no binding” in the test with recombinant mouse α11β1.

B5: A11B1_3B1 (antibody, V domains shown)
VH: QEQLEESGGGLVKPEGSLTLTCKASGFDLSSGYDMCWVRQAPGKGLEWIACIYADYSGSTYYASWVNGRFTISSSTSLNTVDLKMTSLTAADTATYFCARGATGNGGYGYYFNLWGPGTLVTVSS
VL: DIVMTQTPASVSEPVGGTVTIKCQASQNINSGLAWYQQKPGQPPKLLIYKASTLASGVSSRFKGSGSGTEFTLTISDLECADAATYYCQTYYYSSSSSDNAFGGGTEVVVKG
notes: as for B1
As for B5, the binding result was “binds” in test [1], “no binding” in test [2], “binds” in the test with recombinant human α11β1 and “no binding” with recombinant mouse α11β1.

B6: A11B1_5A7 (antibody, V domains shown)
VH: QSLEESGGGLVQPEGSLTLACTASGFSFSSYYYICWVRQAPGTGLEWIGCINTGSDDTHYASWLKGRFTFSKASSTTLTLQMTSLTAADTATYFCARSSGSSDDAYDLWGPGTLVTVSS
VL: DVVMTQTPASVSEPVGGAVTIKCQASQSIGSNLAWYQHKPGQPPKLLIYFASSLASGVSSRFKGGRSGTQFTLTISDLECADAATYYCHCTYYPLSYVTFGGGTEVVVKG
notes: as for B1
Regarding B6, the binding result was “binds” in test [1], “no binding” in test [2], “binds” with recombinant human α11β1 and “no binding” in the test with recombinant mouse α11β1.

B7: A11B1_4E1 (antibody, V domains shown)
VH: QSLEESGGDLVKPGTSLTLSCTASGFSFGSYYYMCWVRQAPGKGLEWIACIDVGSSGDTYYASWVNGRFTISKTSSTTVTLQMTSLTAADTATYFCARDDTAAGGFGNLELWGPGTLVTVSS
VL: AFELTQTPSSVSEPVGGTVTIKCQASQSIYSYFSWYQQKPGQPPKRLIYQASTLASGVPSRFKGSGSGTDFTLTISDLECADAATYYCQNNYGRGSGSYFFGFGGGTEVVVKG
notes: as for B1
In the case of B7, the binding result in test [1] is given as “binds”; in test [2], “no binding”; with recombinant human α11β1 it was “binds”; with recombinant mouse α11β1, “no binding”.

B8: A11B1_16G7 (antibody, V domains shown)
VH: QEQLVESGGDLVKPGASLTLTCTASGFSFNKNYWMCWVRQAPGKGLEWIGCIYNGDGNTYYASWVNGRFTISKTSSTTVTLQMTSLTVADTAIYFCARLLNMWGPGTLVTVSS
VL: DIVMTQTPASVEAAVGGTVTIKCQASESIGNALAWYQQKPGQPPKLLIYTAATLASGVPSRFSGSGSGTEFTLTISGVQCDDAATYYCQSYYFTSVSSYGNAFGGGTEVVVKG
notes: as for B1
Take B8: the binding result in test [1] is on record as “binds”; in test [2], “no binding”; with recombinant human α11β1, “binds”; in the test with recombinant mouse α11β1, “binds”.

B9: 7-H14 (antibody, V domains shown)
VH: QVQLQQPGAELVRPGASVKLSCKPSGYTFTSYWMNWVKQRPGQGLEWIGMIDPSDSETHYNQMFKDKATLTVDKSSNTAYMQLSSLTSEDSAVYYCAQIYYAYDKAYWGQGTLVTVSA
VL: DIVMSQSPSSLAVSVGEKVTMSCKSSQSLLYSSHQKNYLAWYQQKPGQSPKLLIYWASTRESGVPDRFTGSGSGTDFSLTISSVKAEDLAVYYCQEYYSWTFGGGTKLEIK
notes: mouse hybridoma IgG
As to B9, the binding result in test [1] is given as “binds”; in test [2], “no binding”; with recombinant human α11β1, “binds”; with recombinant mouse α11β1, “binds”.

B10: A11B1_6C7 (antibody, V domains shown)
VH: QQQLEESGGGLVKPGGTLTLTCKASGIDFSSYYYMCWVRQAPGKGLELIVCIYTSSGGTWYASWVNGRLTISRSTSLNTVDLKMTSLTAADTATYFCARGVYSGSSDYPTRLDLWGQGTLVTVSL
VL: AIEMTQSPPSLSASVGETVRIRCLASEDIYSGISWYQQKPEKPPTLLISGASNLESGVPPRFSGGGSGTDYTLTIGGVQAEDVATYYCLGGYSFSSTGLTFGAGTKVEIKR
notes: as for B1
As to B10, the binding result is given as “binds” in test [1], “no binding” in test [2], “binds” in the test with recombinant human α11β1 and “no binding” with recombinant mouse α11β1.

B11: 6-O17 (antibody, V domains shown)
VH: QVQLQQPGAELVKPGASVKLSCKASGYTFTSYWMHWIKQRPGQGLEWIGEINPSNGGSNYNEKFKSKATLTVDKSSSTAYMQLSSLTSEDSAVYHCKSRGYWGQGTTLTVSS
VL: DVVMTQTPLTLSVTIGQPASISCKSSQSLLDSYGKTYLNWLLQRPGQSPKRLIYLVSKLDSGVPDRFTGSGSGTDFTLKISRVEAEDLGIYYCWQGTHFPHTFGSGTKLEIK
notes: mouse hybridoma IgG
Regarding B11, the binding result is listed as “binds” in test [1], “no binding” in test [2], “binds” with recombinant human α11β1 and “binds” with recombinant mouse α11β1.
